Data on 11 sequences can be found in the supplement of paper PMC11316812.

± gives the standard deviation of the averaged measurements.

The subject of data set [1] is MCF7. The data set can be described thus: percentage of EdU-negative (G0-arrested) nuclei per well, 72 h; higher = more G0 arrest. The following applies: reference: sequence is the full UniProt precursor, the tested protein was the secreted form or ectodomain.
Data set [2] relates to hTERT-HMEC. Described as above. The following applies: reference: sequence is the full UniProt precursor, the tested protein was the secreted form or ectodomain.
The mark [3] stands for this setting: protein concentration 0.0225 µM.
Where [4] appears, read: protein concentration 0.027265 µM.
Where [5] appears, read: protein concentration 0.27265 µM.
Where [6] appears, read: protein concentration 0.00775 µM.
The mark [7] stands for this setting: protein concentration 0.0775 µM.
Setting [8] is: protein concentration 0.03125 µM.
Where [9] appears, read: protein concentration 0.3125 µM.
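Further: secreted proteins added to cultured cells, EdU pulse at the end, nuclei found by Hoechst imaging, EdU status from nuclear versus surrounding ring intensity ratio, PBS as neutral control.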

On to “MPAGRRGPAAQSARRPPPLLPLLLLLCVLGAPRAGSGAHTAVISPQDPTLLIGSSLLATCSVHGDPPGATAEGLYWTLNGRRLPPELSRVLNASTLALALANLNGSRQRSGDNLVCHARDGSILAGSCLYVGLPPEKPVNISCWSKNMKDLTCRWTPGAHGETFLHTNYSLKYKLRWYGQDNTCEEYHTVGPHSCHIPKDLALFTPYEIWVEATNRLGSARSDVLTLDILDVVTTDPPPDVHVSRVGGLEDQLSVRWVSPPALKDFLFQAKYQIRYRVEDSVDWKVVDDVSNQTSCRLAGLKPGTVYFVQVRCNPFGIYGSKKAGIWSEWSHPTAASTPRSERPGPGGGACEPRGGEPSSGPVRRELKQFLGWLKKHAYCSNLSFRLYDQWRAWMQKSHKTRNQDEGILPSGRRGTARGPAR”, for which the “percentage of EdU-negative” value turned out to be 25.3 ± 0.23% in data set [1] (protein concentration 0.006 µM), 28.9 ± 1.2% in data set [1] (protein concentration 0.06 µM), 4.58 ± 0.39% in data set [2] (protein concentration 0.006 µM) and 5.19 ± 0.85% in data set [2] (protein concentration 0.06 µM).
On to “MPAIAVLAAAAAAWCFLQVESRHLDALAGGAGPNHGNFLDNDQWLSTVSQYDRDKYWNRFRDDDYFRNWNPNKPFDQALDPSKDPCLKVKCSPHKVCVTQDYQTALCVSRKHLLPRQKKGNVAQKHWVGPSNLVKCKPCPVAQSAMVCGSDGHSYTSKCKLEFHACSTGKSLATLCDGPCPCLPEPEPPKHKAERSACTDKELRNLASRLKDWFGALHEDANRVIKPTSSNTAQGRFDTSILPICKDSLGWMFNKLDMNYDLLLDPSEINAIYLDKYEPCIKPLFNSCDSFKDGKLSNNEWCYCFQKPGGLPCQNEMNRIQKLSKGKSLLGAFIPRCNEEGYYKATQCHGSTGQCWCVDKYGNELAGSRKQGAVSCEEEQETSGDFGSGGSVVLLDDLEYERELGPKDKEGKLRVHTRAVTEDDEDEDDDKEDEVGYIW”, for which the “percentage of EdU-negative” value in data set [1] (protein concentration 0.015 µM) stood at 24.9 ± 1%; in data set [1] (protein concentration 0.15 µM), 26.5 ± 1.8%; in data set [2] (protein concentration 0.015 µM) it was 5.37 ± 0.53%; in data set [2] (protein concentration 0.15 µM), 10.4 ± 1.6%.
For the sequence “MPALGWAVAAILMLQTAMAEPSPGTLPRKAGVFSDLSNQELKAVHSFLWSKKELRLQPSSTTTMAKNTVFLIEMLLPKKYHVLRFLDKGERHPVREARAVIFFGDQEHPNVTEFAVGPLPGPCYMRALSPRPGYQSSWASRPISTAEYALLYHTLQEATKPLHQFFLNTTGFSFQDCHDRCLAFTDVAPRGVASGQRRSWLIIQRYVEGYFLHPTGLELLVDHGSTDAGHWAVEQVWYNGKFYGSPEELARKYADGEVDVVVLEDPLPGGKGHDSTEEPPLFSSHKPRGDFPSPIHVSGPRLVQPHGPRFRLEGNAVLYGGWSFAFRLRSSSGLQVLNVHFGGERIAYEVSVQEAVALYGGHTPAGMQTKYLDVGWGLGSVTHELAPGIDCPETATFLDTFHYYDADDPVHYPRALCLFEMPTGVPLRRHFNSNFKGGFNFYAGLKGQVLVLRTTSTVYNYDYIWDFIFYPNGVMEAKMHATGYVHATFYTPEGLRHGTRLHTHLIGNIHTHLVHYRVDLDVAGTKNSFQTLQMKLENITNPWSPRHRVVQPTLEQTQYSWERQAAFRFKRKLPKYLLFTSPQENPWGHKRTYRLQIHSMADQVLPPGWQEEQAITWARYPLAVTKYRESELCSSSIYHQNDPWHPPVVFEQFLHNNENIENEDLVAWVTVGFLHIPHSEDIPNTATPGNSVGFLLRPFNFFPEDPSLASRDTVIVWPRDNGPNYVQRWIPEDRDCSMPPPFSYNGTYRPV”, the “percentage of EdU-negative” value in data set [1] (protein concentration 0.019 µM) turned out to be 25 ± 4.8%; in data set [1] (protein concentration 0.19 µM), 29.1 ± 1.2%; in data set [2] (protein concentration 0.019 µM) it was 5.16 ± 1.3%; in data set [2] (protein concentration 0.19 µM) it was 11 ± 0.68%.
On to “MPAVFMLASSSALQCGRGVPRFPRTEVGAGHSVNEETKAEKVGNQTSVIPATSRQAALGTSWTQRRTQPLQERSHWHPRGNNASGMGGHRMFPGPLRGPAAQVLENECGSLGRAAEGRS [Q8N2X6]”, for which the “percentage of EdU-negative” value came out at 24.5 ± 1.8% in data set [1] (setting [3]), 24.7 ± 0.9% in data set [1] (protein concentration 0.225 µM), 4.66 ± 0.059% in data set [2] (setting [3]) and 4.77 ± 0.18% in data set [2] (protein concentration 0.225 µM).
Turning to “MPDTMLPACFLGLLAFSSACYFQNCPRGGKRAMSDLELRQCLPCGPGGKGRCFGPSICCADELGCFVGTAEALRCQEENYLPSPCQSGQKACGSGGRCAAFGVCCNDESCVTEPECREGFHRRARASDRSNATQLDGPAGALLLRLVQLAGAPEPFEPAQPDAY”, the “percentage of EdU-negative” value in data set [1] (setting [4]) stood at 24 ± 0.36%; in data set [1] (setting [5]) it was 24.4 ± 0.13%; in data set [2] (setting [4]), 5.39 ± 0.55%; in data set [2] (setting [5]), 5.52 ± 1.1%.
As to “MPEEGSGCSVRRRPYGCVLRAALVPLVAGLVICLVVCIQRFAQAQQQLPLESLGWDVAELQLNHTGPQQDPRLYWQGGPALGRSFLHGPELDKGQLRIHRDGIYMVHIQVTLAICSSTTASRHHPTTLAVGICSPASRSISLLRLSFHQGCTIASQRLTPLARGDTLCTNLTGTLLPSRNTDETFFGVQWVRP”, the “percentage of EdU-negative” value in data set [1] (setting [3]) came out at 26.5 ± 2.2%; in data set [1] (protein concentration 0.225 µM), 26.6 ± 0.44%; in data set [2] (setting [3]), 5.04 ± 0.08%; in data set [2] (protein concentration 0.225 µM), 5.11 ± 0.64%.
With “MPERLAEMLLDLWTPLIILWITLPPCIYMAPMNQSQVLMSGSPLELNSLGEEQRILNRSKRGWVWNQMFVLEEFSGPEPILVGRLHTDLDPGSKKIKYILSGDGAGTIFQINDVTGDIHAIKRLDREEKAEYTLTAQAVDWETSKPLEPPSEFIIKVQDINDNAPEFLNGPYHATVPEMSILGTSVTNVTATDADDPVYGNSAKLVYSILEGQPYFSIEPETAIIKTALPNMDREAKEEYLVVIQAKDMGGHSGGLSGTTTLTVTLTDVNDNPPKFAQSLYHFSVPEDVVLGTAIGRVKANDQDIGENAQSSYDIIDGDGTALFEITSDAQAQDGIIRLRKPLDFETKKSYTLKVEAANVHIDPRFSGRGPFKDTATVKIVVEDADEPPVFSSPTYLLEVHENAALNSVIGQVTARDPDITSSPIRFSIDRHTDLERQFNINADDGKITLATPLDRELSVWHNITIIATEIRNHSQISRVPVAIKVLDVNDNAPEFASEYEAFLCENGKPGQVIQTVSAMDKDDPKNGHYFLYSLLPEMVNNPNFTIKKNEDNSLSILAKHNGFNRQKQEVYLLPIIISDSGNPPLSSTSTLTIRVCGCSNDGVVQSCNVEAYVLPIGLSMGALIAILACIILLLVIVVLFVTLRRHKNEPLIIKDDEDVRENIIRYDDEGGGEEDTEAFDIATLQNPDGINGFLPRKDIKPDLQFMPRQGLAPVPNGVDVDEFINVRLHEADNDPTAPPYDSIQIYGYEGRGSVAGSLSSLESTTSDSDQNFDYLSDWGPRFKRLGELYSVGESDKET”, the “percentage of EdU-negative” value in data set [1] (setting [6]) worked out at 27.78 ± 0.12%; in data set [1] (setting [7]), 34.9 ± 1.6%; in data set [2] (setting [6]), 5.37 ± 0.11%; in data set [2] (setting [7]), 5.69 ± 0.22%.
Regarding “MPGAAEALPTVTVTLVAGAVPPASGALTAHCIGGFWREVGVASDQSLVLTAPKRVEGLFLTLSGSNLTVKVAYNSSGSCEIEKIVGSEIDSTGKFAFPGHREIHVLDTDYEGYAILRVSLMWRGRNFRVLKYFTRSLEDKDRLGFWKFRELTADTGLYLAARPGRCAELLKEELI [Q6JVE9]”, the “percentage of EdU-negative” value in data set [1] (setting [3]) stood at 26.5 ± 1.8%; in data set [1] (protein concentration 0.225 µM), 31 ± 2.1%; in data set [2] (setting [3]), 5.03 ± 0.21%; in data set [2] (protein concentration 0.225 µM), 9.51 ± 1.1%.
Consider “MPGGCSRGPAAGDGRLRLARLALVLLGWVSSSSPTSSASSFSSSAPFLASAVSAQPPLPDQCPALCECSEAARTVKCVNRNLTEVPTDLPAYVRNLFLTGNQLAVLPAGAFARRPPLAELAALNLSGSRLDEVRAGAFEHLPSLRQLDLSHNPLADLSPFAFSGSNASVSAPSPLVELILNHIVPPEDERQNRSFEGMVVAALLAGRALQGLRRLELASNHFLYLPRDVLAQLPSLRHLDLSNNSLVSLTYVSFRNLTHLESLHLEDNALKVLHNGTLAELQGLPHIRVFLDNNPWVCDCHMADMVTWLKETEVVQGKDRLTCAYPEKMRNRVLLELNSADLDCDPILPPSLQTSYVFLGIVLALIGAIFLLVLYLNRKGIKKWMHNIRDACRDHMEGYHYRYEINADPRLTNLSSNSDV”, for which the “percentage of EdU-negative” value in data set [1] (setting [3]) amounted to 25.8 ± 1.4%; in data set [1] (protein concentration 0.225 µM), 27.9 ± 0.44%; in data set [2] (setting [3]), 4.65 ± 0.22%; in data set [2] (protein concentration 0.225 µM) it was 6.38 ± 0.11%.
Turning to “MPGGPGVLQALPATIFLLFLLSAVYLGPGCQALWMHKVPASLMVSLGEDAHFQCPHNSSNNANVTWWRVLHGNYTWPPEFLGPGEDPNGTLIIQNVNKSHGGIYVCRVQEGNESYQQSCGTYLRVRQPPPRPFLDMGEGTKNRIITAEGIILLFCAVVPGTLLLFRKRWQNEKLGLDAGDEYEDENLYEGLNLDDCSMYEDISRGLQGTYQDVGSLNIGDVQLEKP”, the “percentage of EdU-negative” value in data set [1] (setting [3]) was found to be 25.3 ± 0.85%; in data set [1] (protein concentration 0.225 µM), 27 ± 1.2%; in data set [2] (setting [3]) it was 5.39 ± 0.06%; in data set [2] (protein concentration 0.225 µM), 5.986 ± 0.025%.
For “MPGIKRILTVTILALCLPSPGNAQAQCTNGFDLDRQSGQCLDIDECRTIPEACRGDMMCVNQNGGYLCIPRTNPVYRGPYSNPYSTPYSGPYPAAAPPLSAPNYPTISRPLICRFGYQMDESNQCVDVDECATDSHQCNPTQICINTEGGYTCSCTDGYWLLEGQCLDIDECRYGYCQQLCANVPGSYSCTCNPGFTLNEDGRSCQDVNECATENPCVQTCVNTYGSFICRCDPGYELEEDGVHCSDMDECSFSEFLCQHECVNQPGTYFCSCPPGYILLDDNRSCQDINECEHRNHTCNLQQTCYNLQGGFKCIDPIRCEEPYLRISDNRCMCPAENPGCRDQPFTILYRDMDVVSGRSVPADIFQMQATTRYPGAYYIFQIKSGNEGREFYMRQTGPISATLVMTRPIKGPREIQLDLEMITVNTVINFRGSSVIRLRIYVSQYPF [Q9UBX5]”, the “percentage of EdU-negative” value in data set [1] (setting [8]) came out at 27.1 ± 1%; in data set [1] (setting [9]), 26.6 ± 2%; in data set [2] (setting [8]), 4.99 ± 0.79%; in data set [2] (setting [9]), 6.25 ± 1.1%.
